According to patent WO2016171242A1 (dated 2016):

B1: mouse anti-human EPHA2 antibody A205 (antibody, V domains shown)
VH: QIQLVQSGPELKKPGETVKISCKASGYTFTDYSMNWVKQAPGKGLKWMGWINTYTGEPTYADDFKGRFAFSLETSASTAYLQINNLKNEDTATYFCASPISLLRLLDYWGQGTTLTVSS
VL: DVVMTQTPLSLPVSLGDQASIPCRSSQSLVHSNGNTYLHWYLQKPGQSPKLLIYKVSNRFSGVPDRFSGSGSGTDFTLKISRVEAEDLGVYFCSQSTHVPWTFGGGTKLEIKR
notes: Mouse monoclonal antibody purified from hybridoma supernatant, isotype IgG2b; also called A205 antibody
B2: mouse anti-human EPHA2 antibody A201 (antibody, V domains shown)
VH: EVQLQQSGAELVKPGASVKLSCTVSGFTFKDTYVHWVKQRPEQGLEWIGRIDPANANTKYDPKFQGKASITADTSSNTAYLQLSSLPSEDTAVYYCAAYGKSAWFAYWGQGTLVTVSA
VL: DIQMTQTTSSLSASLGDRVTISCRASQDIGNYLNWYQQKPDGTVKVLIYYTSRLHSGVPSRFSGSGSGTDYSLTISNLEQEDIATYFCQQGHSLPPTFGGGTKLEIKR
notes: Mouse monoclonal antibody purified from hybridoma supernatant, isotype IgG1; also called A201 antibody

What was measured:
[1] = target: T1, human EPHB1 without signal sequence, FLAG-tagged, expressed from pFLAG-EPHB1 (human, UniProt P54762 18-984); test: flow cytometry on transfected 293F cells
T1 construct: not shown: FLAG tag supplied by the vector pFLAG-GW
T1 sequence: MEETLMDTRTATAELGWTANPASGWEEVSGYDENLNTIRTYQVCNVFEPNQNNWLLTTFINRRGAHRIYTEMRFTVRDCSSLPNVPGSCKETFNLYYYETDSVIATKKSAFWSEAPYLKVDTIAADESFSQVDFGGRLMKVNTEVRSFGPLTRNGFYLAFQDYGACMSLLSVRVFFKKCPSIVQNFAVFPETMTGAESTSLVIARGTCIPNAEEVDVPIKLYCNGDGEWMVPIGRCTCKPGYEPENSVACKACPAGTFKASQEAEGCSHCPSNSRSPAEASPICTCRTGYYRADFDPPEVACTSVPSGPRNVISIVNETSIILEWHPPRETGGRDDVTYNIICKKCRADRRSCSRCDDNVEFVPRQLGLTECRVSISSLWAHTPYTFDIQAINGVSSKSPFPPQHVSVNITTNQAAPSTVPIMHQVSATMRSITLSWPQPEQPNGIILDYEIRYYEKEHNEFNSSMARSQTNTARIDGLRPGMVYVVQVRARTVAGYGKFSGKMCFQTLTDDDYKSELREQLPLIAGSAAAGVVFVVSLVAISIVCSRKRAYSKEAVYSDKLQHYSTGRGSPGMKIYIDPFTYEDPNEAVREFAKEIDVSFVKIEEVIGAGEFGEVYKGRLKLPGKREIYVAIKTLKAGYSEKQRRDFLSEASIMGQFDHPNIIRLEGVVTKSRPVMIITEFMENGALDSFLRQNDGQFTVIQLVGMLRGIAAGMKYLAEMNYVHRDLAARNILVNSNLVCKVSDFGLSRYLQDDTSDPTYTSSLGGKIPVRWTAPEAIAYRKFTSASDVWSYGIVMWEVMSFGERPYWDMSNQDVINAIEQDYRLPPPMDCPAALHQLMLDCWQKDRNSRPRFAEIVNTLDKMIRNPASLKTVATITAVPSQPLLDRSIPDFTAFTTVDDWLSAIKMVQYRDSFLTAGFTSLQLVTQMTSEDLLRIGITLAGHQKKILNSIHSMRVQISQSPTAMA

[2] = target: T1, human EPHB1 without signal sequence, …; test: flow cytometry on 293F cells transfected with pFLAG-EPHB1
[3] = target: T2, human EPHA4 without signal sequence, FLAG-tagged, expressed from pFLAG-EPHA4 (human, UniProt P54764 20-986); test: immunohistochemistry on formalin-fixed, paraffin-embedded 293F cells transiently expressing EPHA4; antibody at 2.5 μg/mL
T2 construct: also called EPHA4-expressing cells; not shown: FLAG tag supplied by the vector pFLAG-GW
T2 sequence (P54764 20-986): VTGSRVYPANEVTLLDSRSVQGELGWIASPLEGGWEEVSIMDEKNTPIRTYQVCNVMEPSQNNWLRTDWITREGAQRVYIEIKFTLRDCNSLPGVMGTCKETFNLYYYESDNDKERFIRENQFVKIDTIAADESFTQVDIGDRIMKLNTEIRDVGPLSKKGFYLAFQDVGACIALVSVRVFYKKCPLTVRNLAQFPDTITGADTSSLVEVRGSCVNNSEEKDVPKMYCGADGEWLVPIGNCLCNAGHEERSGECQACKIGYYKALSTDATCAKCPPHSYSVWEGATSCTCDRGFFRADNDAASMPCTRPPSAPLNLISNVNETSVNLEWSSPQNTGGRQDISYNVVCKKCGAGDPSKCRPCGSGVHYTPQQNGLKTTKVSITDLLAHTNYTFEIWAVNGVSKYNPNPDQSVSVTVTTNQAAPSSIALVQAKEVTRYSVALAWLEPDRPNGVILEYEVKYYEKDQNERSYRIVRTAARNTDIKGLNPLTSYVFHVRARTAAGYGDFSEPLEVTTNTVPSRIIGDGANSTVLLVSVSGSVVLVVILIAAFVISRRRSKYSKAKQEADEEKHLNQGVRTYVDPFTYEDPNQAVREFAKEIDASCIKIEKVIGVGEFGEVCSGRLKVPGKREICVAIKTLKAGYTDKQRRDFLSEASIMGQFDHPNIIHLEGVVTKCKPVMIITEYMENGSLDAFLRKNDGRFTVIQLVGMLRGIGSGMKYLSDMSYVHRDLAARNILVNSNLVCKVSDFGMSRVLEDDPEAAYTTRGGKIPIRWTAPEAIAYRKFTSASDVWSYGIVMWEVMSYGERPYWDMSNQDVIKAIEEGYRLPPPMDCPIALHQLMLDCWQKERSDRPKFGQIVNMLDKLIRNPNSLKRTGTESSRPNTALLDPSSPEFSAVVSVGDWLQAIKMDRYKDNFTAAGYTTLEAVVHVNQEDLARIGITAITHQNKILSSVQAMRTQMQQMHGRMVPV

| Binder | binding result [1] | binding result [2] | binding result [3] |
| --- | --- | --- | --- |
| B1 | no binding |  |  |
| B2 |  | binds | binds |
